Laboratory results reported in paper doi:10.1101/276204 (bioRxiv, 2018).

B2: eGFP-CENP-E^2070-C (domain or fragment, Homo sapiens, UniProt Q02224 2070-2701, looked up)
chain: RQNHQVKPEKRLLSDGQQHLTESLREKCSRIKELLKRYSEMDDHYECLNRLSLDLEKEIEFQKELSMRVKANLSLPYLQTKHIEKLFTANQRCSMEFHRIMKKLKYVLSYVTKIKEEQHESINKFEMDFIDEVEKQKELLIKIQHLQQDCDVPSRELRDLKLNQNMDLHIEEILKDFSESEFPSIKTEFQQVLSNRKEMTQFLEEWLNTRFDIEKLKNGIQKENDRICQVNNFFNNRIIAIMNESTEFEERSATISKEWEQDLKSLKEKNEKLFKNYQTLKTSLASGAQVNPTTQDNKNPHVTSRATQLTTEKIRELENSLHEAKESAMHKESKIIKMQKELEVTNDIIAKLQAKVHESNKCLEKTKETIQVLQDKVALGAKPYKEEIEDLKMKLVKIDLEKMKNAKEFEKEISATKATVEYQKEVIRLLRENLRRSQQAQDTSVISEHTDPQPSNKPLTCGGGSGIVQNTKALILKSEHIRLEKEISKLKQQNEQLIKQKNELLSNNQHLSNEVKTWKERTLKREAHKQVTCENSPKSPKVTGTASKKKQITPSQCKERNLQDPVPKESPKSCFFDSRSKSLPSPHPVRYFDNSSLGLCPEVQNAGAESVDSQPGPWHASSGKDVPECKTQ

How the values were obtained:
[1] = molecular target: mCherry-CENP-F^2866-2990 (Homo sapiens) (UniProt P49454); test: AUC
[2] = molecular target: mCherry-CENP-F^2922-2990 (Homo sapiens) (UniProt P49454); test: AUC
eGFP-CENP-E^2070-C = molecular target: B2; test: SEC
BubR1:Bub3 complex = BubR1:Bub3 complex (human, UniProt O60566 1-1050; O43684 1-328); test: SEC
BubR1:Bub3 complex, sequence (O43684 whole entry, one chain of several): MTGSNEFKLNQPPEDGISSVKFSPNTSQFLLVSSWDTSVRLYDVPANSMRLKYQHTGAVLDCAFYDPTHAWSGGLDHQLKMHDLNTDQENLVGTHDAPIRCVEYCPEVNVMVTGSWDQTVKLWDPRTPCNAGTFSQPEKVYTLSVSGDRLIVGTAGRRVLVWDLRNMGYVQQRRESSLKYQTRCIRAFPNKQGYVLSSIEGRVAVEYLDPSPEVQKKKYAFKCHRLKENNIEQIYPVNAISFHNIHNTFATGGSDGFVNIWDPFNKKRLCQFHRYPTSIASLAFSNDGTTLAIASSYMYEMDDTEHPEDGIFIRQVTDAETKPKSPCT

For “mCherry-CENP-F^2866-2990 (from UniProt P49454 2866-2990) (domain or fragment)”, which stoichiometry N [1] is on record?
Its stoichiometry N is 2.

Which stoichiometry N [2] does the source give for “mCherry-CENP-F^2922-2990 (from UniProt P49454 2922-2990) (domain or fragment)” here?
Its stoichiometry N is 2.

B1: BubR1 pseudokinase domain (KinD, residues 705-1050) (domain or fragment, human, UniProt O60566 705-1050, looked up)
chain: EKLELTNETSENPTQSPWCSQYRRQLLKSLPELSASAELCIEDRPMPKLEIEKEIELGNEDYCIKREYLICEDYKLFWVAPRNSAELTVIKVSSQPVPWDFYINLKLKERLNEDFDHFCSCYQYQDGCIVWHQYINCFTLQDLLQHSEYITHEITVLIIYNLLTIVEMLHKAEIVHGDLSPRCLILRNRIHDPYDCNKNNQALKIVDFSYSVDLRVQLDVFTLSGFRTVQILEGQKILANCSSPYQVDLFGIADLAHLLLFKEHLQVFWDGSFWKLSQNISELKDGELWNKFFVRILNANDEATVSVLGELAAEMNGVFDTTFQSHLNKALWKVGKLTSPGALLFQ
Does B1 bind (eGFP-CENP-E^2070-C)?
Result: binds

Does B2 bind (BubR1:Bub3 complex)?
Result: binds
